Data on seven molecules can be found in US20210070843A1.

Experiment [1] has as its target recombinant H1N1 CA/09 HA trimer (hemagglutinin ectodomain of A/California/07/2009) (influenza A virus A/California/07/2009 (H1N1)). Briefly: ELISA, coated HA. (In general: An ELISA detects its analyte on a solid surface through an enzyme-linked reagent.)
Experiment [2] addresses recombinant H3N2 WN/05 HA trimer (hemagglutinin ectodomain of A/Wisconsin/67/2005) (influenza A virus A/Wisconsin/67/2005 (H3N2)). In words: ELISA, coated HA.
For experiment [3], the target named is recombinant H5N1 VN/04 HA trimer (hemagglutinin ectodomain of A/Vietnam/1203/2004) (influenza A virus A/Vietnam/1203/2004 (H5N1)). Briefly: ELISA, coated HA.
Experiment [4] addresses recombinant H7N9 AH/13 HA trimer (hemagglutinin ectodomain of A/Anhui/1-BALF_RG17/2013) (influenza A virus A/Anhui/1-BALF_RG17/2013 (H7N9)). In words: ELISA, coated HA.
The target of experiment [5] is H7 A/Anhui/1-BALF_RG17/2013 HA on H7N9 AH/13 pseudo virus (influenza A virus A/Anhui/1-BALF_RG17/2013 (H7N9)). Briefly: cell-based or functional assay.
The target of experiment [6] is full-length H1 A/California/07/2009 HA expressed on 293T cells (influenza A virus A/California/07/2009 (H1N1)). Briefly: cell-based or functional assay.
Experiment [7] concerns the target full-length H5 A/Vietnam/1203/2004 HA expressed on 293T cells (influenza A virus A/Vietnam/1203/2004 (H5N1)). Briefly: cell-based or functional assay.
For experiment [8], the target named is cell surface-expressed H3N2 WN/05 HA trimer (influenza A virus A/Wisconsin/67/2005 (H3N2)). In words: flow cytometry, HA-expressing 293T. In general terms: A flow cytometer gives signals particle by particle.
Experiment [9] deals with full-length H1 A/California/07/2009 HA expressed on 293T cells (influenza A virus A/California/07/2009 (H1N1)). Briefly: flow cytometry, HA-expressing 293T.
Experiment [10] addresses full-length H5 A/Vietnam/1203/2004 HA expressed on 293T cells (influenza A virus A/Vietnam/1203/2004 (H5N1)). In words: flow cytometry, HA-expressing 293T.
Experiment [11] concerns the target cell surface-expressed H3N2 WN/05 HA trimer (influenza A virus A/Wisconsin/67/2005 (H3N2)). In words: cell-based or functional assay.

FI6V3 (antibody): the concentration for a half-maximal effect (EC50) turned out to be 0.0107 µg/mL in experiment [1]; 0.0789 µg/mL in [2]; 0.00648 µg/mL in [3]; 0.314 µg/mL in experiment [4]; 0.065 µg/mL in [8]; 0.067 µg/mL in [9]. In experiment [5], this molecule gave an IC50 of pseudo virus neutralization H7N9 AH/13 of 0.051 µg/mL. For the same molecule, the IC50 of pseudo virus neutralization H1N1 CA/09 in experiment [6] worked out at 0.0213 µg/mL. The IC50 of true virus neutralization H1N1 CA/09 in [6] was determined as 9.21 µg/mL. The IC50 of pseudo virus neutralization H5N1 VN/04 in experiment [7] was determined as 0.013 µg/mL. The figures for the max. MFI in [8], in experiment [9] and in [10] were 16600 MFI, 10100 MFI and 13700 MFI, respectively.
With CR8020 (antibody), the results for the concentration for a half-maximal effect (EC50) in experiment [2] and in [8] were 0.0194 µg/mL and 0.569 µg/mL, respectively. Also, the IC50 of pseudo virus neutralization H7N9 AH/13 in [5] was 0.052 µg/mL. The molecule also returned an IC50 of pseudo virus neutralization H3N2 WN/05 in experiment [11] of 0.0477 µg/mL. The molecule further gave an IC50 of pseudo virus neutralization H1N1 CA/09 in experiment [6] of over 100 µg/mL. The IC50 of true virus neutralization H1N1 CA/09 in [6] was over 500 µg/mL. Moreover, the IC50 of pseudo virus neutralization H5N1 VN/04 in [7] is over 200 µg/mL. In addition, the max. MFI in experiment [8] was 18000 MFI; in [9] it was 91 MFI; in experiment [10], 639 MFI.
Regarding F10 (antibody), the figures for the EC50 in experiment [1], in experiment [3] and in experiment [9] were 0.0121 µg/mL, 0.021 µg/mL and 1.05 µg/mL, respectively. The IC50 of pseudo virus neutralization H7N9 AH/13 in experiment [5] is over 200 µg/mL. The IC50 of pseudo virus neutralization H1N1 CA/09 in experiment [6] amounted to 0.0119 µg/mL. Moreover, the IC50 of true virus neutralization H1N1 CA/09 in [6] amounted to 1.26 µg/mL. This molecule also showed an IC50 of pseudo virus neutralization H5N1 VN/04 in [7] of 0.012 µg/mL. Also, the max. MFI in [8] is 220 MFI; in experiment [9], 9530 MFI; in experiment [10], 10500 MFI.
Consider C05 (antibody), for which, in experiment [2], the EC50 was 0.00844 µg/mL.

B1: P58 (antibody, V domains shown)
VH: EVQLVESGGGLVQPGGSLRLSCAASGFTIGGGGIHWVRQAPGKGLEWVAWIWPYWGYTYYADSVKGRFTISADTSKNTAYLQMNSLRAEDTAVYYCARFNSYSYSGVMDYWGQGTLVTVSS
VL: DIQMTQSPSSLSASVGDRVTITCRASQDVYSYVAWYQQKPGKAPKLLISSSRGLYSGVPSRFSGSGSGTDFTLTISSLQPEDFATYYCQQYSSFPITFGQGTKVEIKR
For the molecule B1, the EC50 in experiment [3] was over 10 µg/mL; in [4] it was 0.504 µg/mL; in [8], 3.58 µg/mL; in [9] it was 0.25 µg/mL; in experiment [10], 0.366 µg/mL. In experiment [5], this molecule showed an IC50 of pseudo virus neutralization H7N9 AH/13 of over 200 µg/mL. In [11], this molecule yielded an IC50 of pseudo virus neutralization H3N2 WN/05 of over 20 µg/mL. In [6], the IC50 of pseudo virus neutralization H1N1 CA/09 was over 100 µg/mL. The same molecule returned an IC50 of true virus neutralization H1N1 CA/09 in experiment [6] of over 500 µg/mL. In experiment [7], the IC50 of pseudo virus neutralization H5N1 VN/04 was over 200 µg/mL. The max. MFI in experiment [8] was 697 MFI; in experiment [9], 6290 MFI; in [10], 6710 MFI.

B2: P44 (antibody, V domains shown)
VH: EVQLVESGGGLVQPGGSLRLSCAASGFTIDGWWIHWVRQAPGKGLEWVAGIWPFGGFTSYADSVKGRFTISADTSKNTAYLQMNSLRAEDTAVYYCARSYSGYSGDYWGQGTLVTVSS
VL: DIQMTQSPSSLSASVGDRVTITCRASQDVNNNVAWYQQKPGKAPKLLIYWSSSLYSGVPSRFSGSGSGTDFTLTISSLQPEDFATYYCQQYYNFPVTFGQGTKVEIKR
With B2, the 50% effective concentration (EC50) came to 0.1 µg/mL in experiment [3], 0.163 µg/mL in experiment [4] and 0.466 µg/mL in experiment [9]. This molecule also registered an IC50 of pseudo virus neutralization H7N9 AH/13 in experiment [5] of over 200 µg/mL. This molecule also returned an IC50 of pseudo virus neutralization H3N2 WN/05 in [11] of over 20 µg/mL. In [6], this molecule registered an IC50 of pseudo virus neutralization H1N1 CA/09 of over 100 µg/mL. Moreover, the IC50 of true virus neutralization H1N1 CA/09 in [6] is over 500 µg/mL. The IC50 of pseudo virus neutralization H5N1 VN/04 in experiment [7] is over 200 µg/mL. Further, the figures for the max. MFI in [8], in [9] and in [10] were 127 MFI, 8480 MFI and 188 MFI, respectively.

B3: P03 (antibody, V domains shown)
VH: EVQLVESGGGLVQPGGSLRLSCAASGFTIDSFGIHWVRQAPGKGLEWVAFIGPFGGSTFYADSVKGRFTISADTSKNTAYLQMNSLRAEDTAVYYCARFDSNSYSYHGIMDYWGQGTLVTVSS
VL: DIQMTQSPSSLSASVGDRVTITCRASQDVWGYVAWYQQKPGKAPKLLISWSGSLYSGVPSRFSGSGSGTDFTLTISSLQPEDFATYYCQQYYNWPVTFGQGTKVEIKR
Regarding B3, the half-maximal effective concentration (EC50) is over 10 µg/mL in experiment [3] and 0.494 µg/mL in experiment [9]. The molecule also displayed an IC50 of pseudo virus neutralization H7N9 AH/13 in [5] of over 200 µg/mL. The molecule further returned an IC50 of pseudo virus neutralization H3N2 WN/05 in experiment [11] of over 20 µg/mL. In addition, the IC50 of pseudo virus neutralization H1N1 CA/09 in experiment [6] is over 100 µg/mL. The molecule also gave an IC50 of true virus neutralization H1N1 CA/09 in [6] of over 500 µg/mL. For the same molecule, in experiment [7], the IC50 of pseudo virus neutralization H5N1 VN/04 is over 200 µg/mL. Also, the max. MFI stood at 147 MFI in [8], 6020 MFI in experiment [9] and 216 MFI in [10].

As usually defined, the EC50 is the concentration at which the effect is half-maximal.
